In patent US20140227291A1:

Legend:
[1] = molecular target: Abeta(1-40) monomer in 0.1% NH4OH (human); assay: dot blot, antigen dilution series on nitrocellulose, antibody 0.2 µg/ml, densitometry
[2] = molecular target: Abeta(1-40) monomer in 0.1% NaOH (human); assay: as above
[3] = molecular target: Abeta(1-42) fibril preparation (human) (UniProt P05067); assay: as above
[4] = molecular target: Abeta(1-42) globulomer (human) (UniProt P05067); assay: as above
[5] = molecular target: Abeta(1-42) monomer in 0.1% NH4OH (human); assay: as above
Sequence of Abeta(1-42) monomer in 0.1% NH4OH (human) (peptide, as listed by the source): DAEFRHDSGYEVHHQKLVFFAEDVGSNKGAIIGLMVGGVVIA

[6] = molecular target: Abeta(1-42) monomer in 0.1% NaOH (human); assay: as above
[7] = molecular target: platelet factor 4 (PF-4) in Cynomolgus monkey plasma (Cynomolgus (Macaca fascicularis)); assay: sandwich-ELISA with cynomolgus plasma; reference antibody
Sequence of platelet factor 4 (PF-4) in Cynomolgus monkey plasma (Cynomolgus (Macaca fascicularis)) (chain, as listed by the source): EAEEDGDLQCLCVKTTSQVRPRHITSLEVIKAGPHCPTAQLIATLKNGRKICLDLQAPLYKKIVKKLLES

[8] = molecular target: human platelet factor 4 (PF-4) in HPF4-spiked human plasma (human) (UniProt P02776); assay: sandwich-ELISA with HPF4-spiked human plasma; reference antibody
Sequence of human platelet factor 4 (PF-4) in HPF4-spiked human plasma (human) (P02776 32-101): as the sequence (chain, as listed by the source) above, with V64I counted along it

[9] = molecular target: platelet factor 4 (PF-4) in Cynomolgus monkey plasma (Cynomolgus (Macaca fascicularis)); assay: aligned sandwich-ELISA with cynomolgus plasma; reference antibody
[10] = molecular target: human platelet factor 4 (PF-4) in HPF4-spiked human plasma (human) (UniProt P02776); assay: aligned sandwich-ELISA with HPF4-spiked human plasma; reference antibody
[11] = molecular target: platelet factor 4 (PF-4) in Cynomolgus monkey plasma (Cynomolgus (Macaca fascicularis)); assay: sandwich-ELISA, antibody coated at 10 µg/ml, cynomolgus plasma dilutions 1:3.16 to 1:3160, OD450 against log dilution
[12] = molecular target: human platelet factor 4 (PF-4) in HPF4-spiked human plasma (human) (UniProt P02776); assay: sandwich-ELISA, antibody coated at 10 µg/ml, HPF4-spiked human plasma dilutions 1:3.16 to 1:3160, OD450 against log dilution
[13] = molecular target: platelet factor 4 (PF-4) in Cynomolgus monkey plasma (Cynomolgus (Macaca fascicularis)); assay: aligned sandwich-ELISA, antibody 10 to 10000 ng/ml captured by anti-mouse IgG (Fc), cynomolgus plasma 1:100, OD450 against log concentration
[14] = molecular target: human platelet factor 4 (PF-4) in HPF4-spiked human plasma (human) (UniProt P02776); assay: aligned sandwich-ELISA, antibody 10 to 10000 ng/ml captured by anti-mouse IgG (Fc), HPF4-spiked human plasma 1:10, OD450 against log concentration
[15] = molecular target: platelet factor 4 (PF-4) in Cynomolgus monkey plasma (Cynomolgus (Macaca fascicularis)); assay: aligned sandwich-ELISA: antibody dilution series captured by coated anti-mouse IgG (Fc), cynomolgus plasma 1:100, bound PF-4 detected with rabbit anti-HPF4 and anti-rabbit-POD
[16] = molecular target: human platelet factor 4 (PF-4) in HPF4-spiked human plasma (human) (UniProt P02776); assay: aligned sandwich-ELISA: antibody dilution series captured by coated anti-mouse IgG (Fc), HPF4-spiked human plasma 1:10, bound PF-4 detected with rabbit anti-HPF4 and anti-rabbit-POD

Sequence of Abeta(1-40) monomer in 0.1% NaOH (human) (peptide, as listed by the source): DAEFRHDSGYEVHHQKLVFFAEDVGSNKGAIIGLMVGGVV

Substance	dot blot ratio (recognition of Abeta(20-42) globulomer relative to this Abeta form) [1]	dot blot ratio (recognition of Abeta(20-42) globulomer relative to this Abeta form) [2]	dot blot ratio (recognition of Abeta(20-42) globulomer relative to this Abeta form) [3]	dot blot ratio (recognition of Abeta(20-42) globulomer relative to this Abeta form) [4]	dot blot ratio (recognition of Abeta(20-42) globulomer relative to this Abeta form) [5]	dot blot ratio (recognition of Abeta(20-42) globulomer relative to this Abeta form) [6]	Ratio HPF4/aAbeta antibody (AUC of anti-HPF4 over AUC of this antibody) [7]	Ratio HPF4/aAbeta antibody (AUC of anti-HPF4 over AUC of this antibody) [8]	Ratio HPF4/aAbeta antibody (AUC of anti-HPF4 over AUC of this antibody) [9]	Ratio HPF4/aAbeta antibody (AUC of anti-HPF4 over AUC of this antibody) [10]	Area Under Curve [11]	Area Under Curve [12]	Area Under Curve [13]	Area Under Curve [14]	EC50 (read off the curve) [15] [µg/mL]	EC50 (read off the curve) [16] [µg/mL]
Anti-Abeta monoclonal antibody clone 6E10 (Covance cat. no. SIG-39320)	3	20	29	0.09	10	10	–	–	–	–	–	–	–	–	–	–
Anti-HPF4 monoclonal antibody (Abcam Cat. No. ab49735)	–	–	–	–	–	–	1	1	1	1	2.68	1.99	4.78	3.84	0.05	0.07
Monoclonal antibody clone mIgG2a (negative control)	–	–	–	–	–	–	–	–	–	–	0.005	0.006	0.015	0.033	–	–
